Measured values: the supplement of paper PMC10567573

B1: CAMK2A (parent)
chain: ILLVGYPPFWDEDQHRLYKQIKAG
B2: PPP2R2B (parent)
chain: RNTKRDVTLEASRENSKPRAILKP

Variants of: B1
Assay: protein stability index of a GFP-peptide fusion (GPS, HEK-293T) (PSI 1-6); higher = more stable
Details: c terminus: a fixed tail appended
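Also: lentivirally expressed fusions sorted by FACS into six bins by GFP to DsRed ratio, PSI derived from sequencing read proportions per bin multiplied by bin number.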

Protein stability index, by site and new letter:
K22: C 2.31 | D 1.97 | E 1.96 | F 2.94 | G 1.63 | H 1.52 | I 2.55 | M 2.6 | N 2.6 | P 2.74 | Q 3.46 | R 1.91 | S 3.22 | T 2.52 | V 2.15 | W 2.2 | Y 2.43
A23: D 1.98 | E 2.26 | F 2.23 | G 1.72 | H 1.58 | I 2.82 | K 2.1 | L 2.11 | M 2.06 | N 2.67 | P 1.8 | Q 2.82 | R 2.21 | S 2.46 | T 1.27 | V 1.98 | W 3.2 | Y 2.73
G24: A 2.05 | C 2.27 | D 1.87 | E 1.36 | F 1.51 | H 2.08 | I 2.71 | K 1.7 | L 1.8 | M 1.58 | N 3.14 | P 1.65 | Q 3.66 | R 2.4 | S 2.52 | T 2.58 | V 2.81 | W 1.96 | Y 2.39

Variants of: B2
Assay: as above
Details: c terminus: a fixed tail appended

Protein stability index: each site, then its substitutions
R1: A 4.61 | C 4.88 | D 4.97 | E 4.31 | F 4.29 | G 4.9 | H 4.72 | I 4.61 | K 4.65 | L 4.62 | M 4.44 | N 4.79 | P 4.27 | Q 4.81 | S 4.47 | T 4.99 | V 4.44 | W 4.45 | Y 4.22
N2: A 4.31 | C 4.27 | D 4.89 | E 4.82 | F 4.51 | G 4.81 | H 4.66 | I 4.69 | K 4.51 | L 3.72 | M 4.4 | P 4.31 | Q 4.06 | R 4.02 | S 4.62 | T 4.42 | V 4.1 | W 3.34 | Y 4.37
T3: A 4.87 | C 4.55 | D 4.81 | E 4.88 | F 4.17 | G 4.29 | H 4.4 | I 4.45 | K 4.91 | L 4.64 | M 4.35 | N 3.95 | P 4.53 | Q 4.75 | R 4.45 | S 4.61 | V 4.57 | W 4.05 | Y 3.84
K4: A 4.43 | C 3.8 | D 4.72 | E 4.6 | F 4.42 | G 4.61 | H 4.84 | I 4.29 | L 4.61 | M 4.71 | N 4.77 | P 4.88 | Q 4.96 | R 4.54 | S 4.92 | T 4.82 | V 4.19 | W 3.39 | Y 4.42
R5: A 5.17 | C 4.43 | D 4.68 | E 5.03 | F 4.44 | G 5.07 | H 4.85 | I 4.19 | K 4.62 | L 4.4 | M 3.86 | N 4.92 | P 4.79 | Q 4.54 | S 4.49 | T 4.94 | V 4.91 | W 3.87 | Y 4.26
D6: A 4.64 | C 4.29 | E 4.49 | F 3.83 | G 4.44 | H 4.49 | I 3.64 | K 4.45 | L 3.94 | M 4.33 | N 4.55 | P 3.81 | Q 4.46 | R 4.29 | S 4.55 | T 4.34 | V 4.08 | W 3.27
